Assay results reported in the supplement of paper PMC6757056.
± gives the standard deviation of the averaged measurements.

B1: library; a variant is named by its letters at N, in order (parent)
chain: GCUGUCACCGAGAAACUGUGAAGUAUAUCUUAAACCUGGGCACUUAAAAGAUAUAUGGAGUUAGUAGUGCAACCUGCUCGGUCUGAUGAGUCCNNNNNNGGACGAAACAGC

Tests used:
cyclic di-GMP [1] = variants of: B1; assay: normalized RNA/DNA level without ligand (relative to sTRSVctl = 100) (log10 (% of sTRSVctl)); HEK293T; ligand: cyclic di-GMP (c-di-GMP-II aptamer); higher = less ribozyme self-cleavage, higher mRNA level; conditions: reporter: mCherry (pCS4076), ligand present: no
In short: (§1)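 HEK293T cells were transfected with library plasmids carrying ribozyme switches linked to an mCherry reporter, or an eGFP reporter in some ligand experiments, at 4 µg per well of a 6-well plate, with any ligand added 1 h beforehand. After 72 h, total RNA was extracted with EDTA, reverse-transcribed, amplified, barcoded and sequenced. RNA level was defined as RNA reads over DNA reads, normalized to a spiked-in non-cleaving sequence or to the top-ranked sequences. That value was multiplied by 100 and converted to log10, the top set was 25 sequences, and only sequences with ≥100 DNA reads were retained.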

cyclic di-GMP [2] = variants of: B1; assay: normalized RNA/DNA level with ligand (relative to sTRSVctl = 100) (log10 (% of sTRSVctl)); HEK293T; ligand: cyclic di-GMP (c-di-GMP-II aptamer); ligand concentration (+) RNA-Seq: 1 mM; higher = less ribozyme self-cleavage, higher mRNA level; conditions: reporter: mCherry (pCS4076), ligand present: yes
In short: as §1

Variant	normalized RNA/DNA level without ligand (log10) (cyclic di-GMP [1])	normalized RNA/DNA level with ligand (log10) (cyclic di-GMP [2])
AAUCAC	1.71 ± 0.027	1.83 ± 0.096
AGAGGC	1.665 ± 0.0051	1.77 ± 0.13
GCGGUC	1.29 ± 0.072	1.52 ± 0.09
AAUAUG	1.61 ± 0.06	1.74 ± 0.11
GACAUC	1.67 ± 0.037	1.84 ± 0.059
GACAUU	1.66 ± 0.044	1.8 ± 0.074
GAAUCG	1.67 ± 0.041	1.8 ± 0.096
AGUUUU	1.79 ± 0.033	1.89 ± 0.13
GUAGAC	1.595 ± 0.0029	1.79 ± 0.13
CUAAGC	1.75 ± 0.039	1.87 ± 0.077
AAAACU	1.669 ± 0.0017	1.79 ± 0.086
CGCGUC	1.77 ± 0.062	1.88 ± 0.15
CGUUGC	1.78 ± 0.027	1.88 ± 0.071
CUGACG	1.8 ± 0.028	1.9 ± 0.17
GGAAGC	1.634 ± 0.0082	1.76 ± 0.054
GCCUUU	1.69 ± 0.051	1.88 ± 0.14
AAGAGU	1.5 ± 0.035	1.71 ± 0.12
GGGCAA	1.72 ± 0.046	1.8 ± 0.026
GGGCAC	1.78 ± 0.042	1.89 ± 0.074
UCUAGA	1.74 ± 0.021	1.88 ± 0.15

Variant	normalized RNA/DNA level without ligand (log10) (cyclic di-GMP [1])	normalized RNA/DNA level with ligand (log10) (cyclic di-GMP [2])
UCUCCC	1.81 ± 0.073	1.92 ± 0.14
UCGGAC	1.66 ± 0.029	1.8 ± 0.13
ACUGCA	1.64 ± 0.023	1.77 ± 0.1
UACCAG	1.701 ± 0.003	1.83 ± 0.11
CGAAAU	1.42 ± 0.055	1.63 ± 0.12
UUCGCC	1.7 ± 0.051	1.83 ± 0.067
CCCAGC	1.72 ± 0.03	1.84 ± 0.16
GGUCUU	1.64 ± 0.039	1.79 ± 0.13
CCCACU	1.624 ± 0.014	1.83 ± 0.12
GGUCAC	1.754 ± 0.014	1.87 ± 0.091
GAUACG	1.62 ± 0.019	1.76 ± 0.12
GAUACC	1.758 ± 0.0066	1.89 ± 0.066
UGCUCG	1.77 ± 0.059	1.89 ± 0.16
GCACAG	1.58 ± 0.061	1.71 ± 0.14
UCGGCC	1.85 ± 0.024	1.95 ± 0.054
CACUCG	1.82 ± 0.042	1.87 ± 0.11
CACUCC	1.74 ± 0.077	1.84 ± 0.091
UGCUAU	1.676 ± 0.0088	1.83 ± 0.13
GACGGG	1.76 ± 0.027	1.85 ± 0.062
AUAUGA	1.43 ± 0.066	1.63 ± 0.071

Variant	normalized RNA/DNA level without ligand (log10) (cyclic di-GMP [1])	normalized RNA/DNA level with ligand (log10) (cyclic di-GMP [2])
CUCACA	1.66 ± 0.033	1.83 ± 0.13
GAUUCA	1.72 ± 0.021	1.85 ± 0.064
GGUGAU	1.67 ± 0.041	1.76 ± 0.057
GUCGGC	1.65 ± 0.067	1.83 ± 0.053
UGUGUA	1.61 ± 0.045	1.74 ± 0.072
ACCCAA	1.56 ± 0.03	1.74 ± 0.15
UUCUAU	1.721 ± 0.0074	1.83 ± 0.11
UGCGCU	1.72 ± 0.032	1.89 ± 0.11
GAACCU	1.69 ± 0.033	1.86 ± 0.08
CUAUGA	1.6 ± 0.059	1.76 ± 0.058
UAGAGG	1.67 ± 0.087	1.82 ± 0.1
UAGCAC	1.708 ± 0.0035	1.83 ± 0.095
AUUAAG	1.55 ± 0.041	1.75 ± 0.14
CAGUCU	1.52 ± 0.048	1.68 ± 0.12
UUAGGU	1.7 ± 0.042	1.86 ± 0.1
UUAGGC	1.7 ± 0.021	1.83 ± 0.14
AGCGAG	1.57 ± 0.13	1.74 ± 0.042
CCUAAC	1.66 ± 0.033	1.8 ± 0.097
